# Source: US20240117018A1
# Key:
# Assay in all cases: cell-based or functional assay
# [1] = biological target: Env of HIV-1 pseudovirus 3415.v1.c1 (HIV-1)
# [2] = biological target: HIV-1 Env pseudovirus 928-28 (HIV-1)
# [3] = biological target: HIV-1 Env pseudovirus 3365.v2.c2 (HIV-1)
# [4] = biological target: HIV-1 Env pseudovirus T257-31 (HIV-1)
# [5] = biological target: CAP45.2.00.G3 Env pseudovirus (HIV-1)
# [6] = biological target: Q259.d2.17 Env pseudovirus (HIV-1)
# [7] = biological target: RHPA4259.7 Env pseudovirus (HIV-1)
# [8] = biological target: HIV-0013095-2.11 Env pseudovirus (HIV-1)
# [9] = biological target: ZM249M.PL1 Env pseudovirus (HIV-1)
# [10] = biological target: 62357_14_D3_4589 Env pseudovirus (HIV-1)
# [11] = biological target: T257-31 Env pseudovirus (HIV-1)
# [12] = biological target: CNE20 Env pseudovirus (HIV-1)
# [13] = biological target: ZM197M.PB7 Env pseudovirus (HIV-1)
# [14] = biological target: ZM109F.PB4 Env pseudovirus (HIV-1)
# [15] = biological target: 6240_08_TA5_4622 Env pseudovirus (HIV-1)
# [16] = biological target: CNE52 Env pseudovirus (HIV-1)
# [17] = biological target: CAAN5342.A2 Env pseudovirus (HIV-1)
# [18] = biological target: PVO.4 Env pseudovirus (HIV-1)
# [19] = biological target: Du156.12 Env pseudovirus (HIV-1)
# [20] = biological target: ZM135M.PL10a Env pseudovirus (HIV-1)
# [21] = biological target: 249M B10 Env pseudovirus (HIV-1)
# [22] = biological target: 1054_07_TC4_1499 Env pseudovirus (HIV-1)
# [23] = biological target: ZM247v1(Rev-) Env pseudovirus (HIV-1)
# [24] = biological target: Q461.e2 Env pseudovirus (HIV-1)
# [25] = biological target: ZM53M.PB12 Env pseudovirus (HIV-1)
# [26] = biological target: WEAU_d15_410_787 Env pseudovirus (HIV-1)
# [27] = biological target: 6244_13_B5_4576 Env pseudovirus (HIV-1)
# [28] = biological target: 9004SS_A3_4 Env pseudovirus (HIV-1)
# [29] = biological target: HIV-16055-2.3 Env pseudovirus (HIV-1)
# [30] = biological target: 928-28 Env pseudovirus (HIV-1)
# [31] = biological target: TRJO4551.58 Env pseudovirus (HIV-1)
# [32] = biological target: REJO4541.67 Env pseudovirus (HIV-1)
# [33] = biological target: Q842.d12 Env pseudovirus (HIV-1)
# [34] = biological target: CAP210.2.00.E8 Env pseudovirus (HIV-1)
# [35] = biological target: Du172.17 Env pseudovirus (HIV-1)
# [36] = biological target: HIV-001428-2.42 Env pseudovirus (HIV-1)
# [37] = biological target: Ce2060_G9 Env pseudovirus (HIV-1)
# [38] = biological target: Ce703010054_2A2 Env pseudovirus (HIV-1)
substance,measurement,setting,value
10-1074 (antibody),IC50,[1],> 50 µg/mL
same,IC80,[1],> 50 µg/mL
VRC01 (antibody),IC50 (Titer in TZM.bl cells),[2],0.41 µg/mL
same,IC80 (Titer in TZM.bl cells),[2],1.7 µg/mL
same,IC50 (Titer in TZM.bl cells),[3],0.06 µg/mL
same,IC80 (Titer in TZM.bl cells),[3],0.17 µg/mL
same,IC50 (Titer in TZM.bl cells),[4],2.8 µg/mL
same,IC80 (Titer in TZM.bl cells),[4],8.66 µg/mL
PGT121 (antibody),IC50,[5],1.63 µg/mL
same,IC80,[5],> 50 µg/mL
same,IC50,[6],15.4 µg/mL
same,IC80,[6],> 50 µg/mL
same,IC80,[7],0.035 µg/mL
same,IC50,[8],> 50 µg/mL
same,IC80,[8],> 50 µg/mL
same,IC50,[9],> 50 µg/mL
same,IC80,[9],> 50 µg/mL
same,IC50,[10],2.6 µg/mL
same,IC80,[10],> 50 µg/mL
same,IC50,[11],> 50 µg/mL
same,IC80,[11],> 50 µg/mL
same,IC50,[12],< 0.001 µg/mL
same,IC80,[12],0.002 µg/mL
same,IC50,[13],> 50 µg/mL
same,IC80,[13],> 50 µg/mL
same,IC50,[14],8.64 µg/mL
same,IC80,[14],> 50 µg/mL
same,IC50,[15],0.033 µg/mL
same,IC80,[15],0.127 µg/mL
same,IC50,[16],2.04 µg/mL
same,IC80,[16],18.9 µg/mL
same,IC50,[17],0.007 µg/mL
same,IC80,[17],0.023 µg/mL
same,IC50,[18],0.098 µg/mL
same,IC80,[18],0.343 µg/mL
same,IC50,[19],0.004 µg/mL
same,IC80,[19],0.017 µg/mL
same,IC50,[20],0.716 µg/mL
same,IC80,[20],5.25 µg/mL
same,IC50,[21],> 50 µg/mL
same,IC80,[21],> 50 µg/mL
same,IC50,[22],0.064 µg/mL
same,IC80,[22],0.304 µg/mL
same,IC50,[23],0.028 µg/mL
same,IC80,[23],0.082 µg/mL
same,IC50,[24],> 50 µg/mL
same,IC80,[24],> 50 µg/mL
same,IC50,[25],< 0.001 µg/mL
same,IC80,[25],0.004 µg/mL
same,IC50,[26],0.026 µg/mL
same,IC80,[26],0.077 µg/mL
same,IC50,[27],0.061 µg/mL
same,IC80,[27],0.347 µg/mL
same,IC50,[28],< 0.001 µg/mL
same,IC80,[28],0.003 µg/mL
same,IC50,[29],0.153 µg/mL
same,IC80,[29],4.8 µg/mL
same,IC50,[30],44.2 µg/mL
same,IC80,[30],> 50 µg/mL
same,IC50,[31],1.31 µg/mL
same,IC80,[31],37.9 µg/mL
same,IC50,[32],4.77 µg/mL
same,IC80,[32],> 50 µg/mL
same,IC50,[33],0.005 µg/mL
same,IC50,[34],26.3 µg/mL
same,IC80,[34],> 50 µg/mL
same,IC50,[35],0.033 µg/mL
same,IC80,[35],0.257 µg/mL
same,IC50,[36],0.014 µg/mL
same,IC80,[36],0.051 µg/mL
same,IC50,[37],> 50 µg/mL
same,IC80,[37],> 50 µg/mL
same,IC50,[38],> 50 µg/mL
same,IC80,[38],> 50 µg/mL
